Experimental data as given in US20250304965A1, “DOUBLE-STRANDED RNA MOLECULE AND PHARMACEUTICAL USE THEREOF” (MACAU UNIVERSITY OF SCIENCE AND TECHNOLOGY, priority 2022, published 2025).
Where two headings read alike, the source gives them in different places. [Ψ] = pseudouridine

How the values were obtained:
Format in all cases: cell-based, human
A2780 cells = assay: MTT cytotoxicity analysis, ovarian cancer cells A2780; details: for IC50: A2780 ovarian cancer cells, 48 hours of treatment, Lipofectamine RNAiMAX transfection reagent, MTT, read-out: Median inhibitory concentration IC50; for inhibition of growth and proliferation (cell viability vs control and RNAiMAX group): ovarian cancer cells A2780, 6.25-200 nM, 48 hours, FIG. 6-8
Method: (§1) A2780 and HCT-8 cell lines were cultured in RPMI 1640 medium containing 10% FBS and 1% penicillin/streptomycin. HepG2 cell lines were cultured in MEM medium containing 10% FBS and 1% penicillin/streptomycin. All the above cell lines were cultured at 37° C. in a humidified atmosphere containing 5% CO2.
(§2) In the cytotoxicity analysis, exponentially growing cells of each cancer cell line were inoculated at a density of 5000 cells per well in a 100 μL medium in a 96-well microplate and allowed to adhere for 24 hours prior to treatment. Then obtained RNA molecules at successive concentrations with a nucleic acid transfer vector, namely, Lipofectamine™ RNAiMAX transfection reagent (Thermo Fisher Scientific, United States), were added to the cells. After 48 hours of treatment, MTT solution (50 μL per well, 1 mg/mL solution) was added to each well and incubated at 37° C. for 4 hours. Then 200 μL of dimethyl sulfoxide (DMSO) was added, and an optical density of the resulting solution was measured via calorimetry by using SpectraMax 190 microplate reader (Molecular Devices, United States) at 570 nm. Dose-response curves were obtained and IC50 values were calculated via GraphPad Prism 5 (GraphPad, United States). Each experiment was performed three times.
(§3) Before addition of the MTT solution, the inventor determined the cytotoxic effects and IC 50 of the GL1, GL2, GL4, and GL6 mimics at different concentrations of 6.25 nM, 12.5 nM, 25 nM, 50 nM, 100 nM, and 200 nM on A2780, HCT-8 and HepG2 cells. After 48 hours of the treatment of the double-stranded RNA molecules, the cell viability of these cells was compared with that of the control group and the RNAiMAX group. Paclitaxel was used in a comparative example. […] The results were compared with those of the control group and the RNAiMAX group using the transfection agent. For IC50, refer to Table 4. Paclitaxel was used in a comparative example.
(§4) Then the inventor specifically determined the cytotoxic effects and IC50 of the RNA molecules GL2 mimic and different chemically modified GL10, GL11 and GL12 mimics at different concentrations of 6.25 nM, 12.5 nM, 25 nM, 50 nM, 100 nM, and 200 nM on A2780, HCT-8 and HepG2 cells. […] For IC50, refer to Table 5. Paclitaxel was used in a comparative example.

HCT-8 cells = assay: MTT cytotoxicity analysis, colorectal cancer cells HCT-8; details: for IC50: HCT-8 colorectal cancer cells, 48 hours of treatment, Lipofectamine RNAiMAX transfection reagent, MTT, read-out: Median inhibitory concentration IC50; for inhibition of growth and proliferation (cell viability vs control and RNAiMAX group): colon cancer cells HCT-8, 6.25-200 nM, 48 hours, FIG. 6-8
Method: as §1, §2, §3, §4

HepG2 cells = assay: MTT cytotoxicity analysis, liver cancer cells HepG2; details: for IC50: HepG2 liver cancer cells, 48 hours of treatment, Lipofectamine RNAiMAX transfection reagent, MTT, read-out: Median inhibitory concentration IC50; for inhibition of growth and proliferation (cell viability vs control and RNAiMAX group): liver cancer cells HepG2, 6.25-200 nM, 48 hours, FIG. 6-8
Method: as §1, §2, §3, §4

| Molecule | IC50 (A2780 cells; Homo sapiens) [nM] | IC50 (HCT-8 cells; Homo sapiens) [nM] | IC50 (HepG2 cells; Homo sapiens) [nM] | inhibition of growth and proliferation (cell viability vs control and RNAiMAX group) (A2780 cells) | inhibition of growth and proliferation (cell viability vs control and RNAiMAX group) (HCT-8 cells) | inhibition of growth and proliferation (cell viability vs control and RNAiMAX group) (HepG2 cells) | IC50 (HCT-8 cells) [nM] | IC50 (HepG2 cells) [nM] | IC50 (A2780 cells) [nM] | inhibition of growth and proliferation (cell viability vs control and RNAiMAX group) (A2780 cells; listed as GL2) | inhibition of growth and proliferation (cell viability vs control and RNAiMAX group) (HCT-8 cells; listed as GL2) | inhibition of growth and proliferation (cell viability vs control and RNAiMAX group) (HepG2 cells; listed as GL2) |
| --- | --- | --- | --- | --- | --- | --- | --- | --- | --- | --- | --- | --- |
| CC(=O)O[C@H]1C(=O)[C@@]2(C)[C@H]([C@H](OC(=O)c3ccccc3)[C@]3(O)C[C@H](OC(=O)[C@H](O)[C@@H](NC(=O)c4ccccc4)c4ccccc4)C(C)=C1C3(C)C)[C@]1(OC(C)=O)CO[C@@H]1C[C@@H]2O [Taxol, Paclitaxel, reference compound] | 73.2 | 621 | 678 |  |  |  |  |  |  |  |  |  |
| GL7: double-stranded RNA from Ganoderma lucidum tRNA-Ile(GAU); antisense SEQ ID NO: 8, sense SEQ ID NO: 17, length 19 (antisense AUUCUUCUUGGGCUUACCA; sense UGGUAAGCCCAAGAAGAAU; RNA, backbone not given here) |  |  |  | have the effect of inhibiting the growth and proliferation of cancer cells | have the effect of inhibiting the growth and proliferation of cancer cells | have the effect of inhibiting the growth and proliferation of cancer cells |  |  |  |  |  |  |
| GL5: double-stranded RNA from Ganoderma lucidum tRNA-Ile(GAU); antisense SEQ ID NO: 6, sense SEQ ID NO: 15, length 19 (antisense AAGCCUAUAAUUUAAAGGU; sense ACCUUUAAAUUAUAGGCUU; RNA, backbone not given here) |  |  |  | have the effect of inhibiting the growth and proliferation of cancer cells | have the effect of inhibiting the growth and proliferation of cancer cells | have the effect of inhibiting the growth and proliferation of cancer cells |  |  |  |  |  |  |
| GL4 mimic: double-stranded RNA from Ganoderma lucidum tRNA-Ile(GAU); antisense SEQ ID NO: 5, sense SEQ ID NO: 14, length 22 (antisense AAGCCUAUAAUUUAAAGGUAGA; sense UCUACCUUUAAAUUAUAGGCUU; RNA, backbone not given here) |  |  |  | effective in inhibiting growth and proliferation | effective in inhibiting growth and proliferation | effective in inhibiting growth and proliferation | 950 | 350 |  |  |  |  |
| GL6 mimic: double-stranded RNA from Ganoderma lucidum tRNA-Ile(GAU); antisense SEQ ID NO: 7, sense SEQ ID NO: 16, length 22 (antisense UCGAUUCUUCUUGGGCUUACCA; sense UGGUAAGCCCAAGAAGAAUCGA; RNA, backbone not given here) |  |  |  | effective in inhibiting growth and proliferation | effective in inhibiting growth and proliferation | effective in inhibiting growth and proliferation | 600 | 400 |  |  |  |  |
| GL8: double-stranded RNA from Ganoderma lucidum tRNA-Ile(GAU); antisense SEQ ID NO: 9, sense SEQ ID NO: 18, length 22 (antisense AGUUCGAUUCUUCUUGGGCUUA; sense UAAGCCCAAGAAGAAUCGAACU; RNA, backbone not given here) |  |  |  | have the effect of inhibiting the growth and proliferation of cancer cells | have the effect of inhibiting the growth and proliferation of cancer cells | have the effect of inhibiting the growth and proliferation of cancer cells |  |  |  |  |  |  |
| GL9: double-stranded RNA from Ganoderma lucidum tRNA-Ile(GAU); antisense SEQ ID NO: 10, sense SEQ ID NO: 19, length 19 (antisense UCGAUUCUUCUUGGGCUUA; sense UAAGCCCAAGAAGAAUCGA; RNA, backbone not given here) |  |  |  | have the effect of inhibiting the growth and proliferation of cancer cells | have the effect of inhibiting the growth and proliferation of cancer cells | have the effect of inhibiting the growth and proliferation of cancer cells |  |  |  |  |  |  |
| GL1 mimic: double-stranded RNA from Ganoderma lucidum tRNA-Ile(GAU); antisense SEQ ID NO: 2, sense SEQ ID NO: 11, length 33 (nucleic acid, RNA, backbone not given here) antisense: AAGCCUAUAAUUUAAAGGUAGAAUAAUUUCUUG sense: CAAGAAAUUAUUCUACCUUUAAAUUAUAGGCUU |  |  |  | effective in inhibiting growth and proliferation | effective in inhibiting growth and proliferation | effective in inhibiting growth and proliferation | 84 | 350 | 225 |  |  |  |
| GL11 mimic: chemically modified GL2 double-stranded RNA (5-methyluridine); antisense SEQ ID NO: 21, sense SEQ ID NO: 25, length 41 (nucleic acid, RNA, backbone not given here; further chemistry not fully specified) antisense: AUAAGGAAUCUGUAGAAGTUCGAUUCUUCUUGGGCUUACCA sense: UGGUAAGCCCAAGAAGAAUCGAACUUCUACAGAUUCCUUAU |  |  |  | have a dose-dependent effect on inhibiting the growth and proliferation | have a dose-dependent effect on inhibiting the growth and proliferation | have a dose-dependent effect on inhibiting the growth and proliferation | 31.5 | 85.3 | 17.2 |  |  |  |
| GL10 mimic: chemically modified GL2 double-stranded RNA (5-methyluridine and pseudouridine); antisense SEQ ID NO: 20, sense SEQ ID NO: 24, length 41 (nucleic acid, antisense: RNA, [Ψ] at 20, backbone not given here; sense: RNA, backbone not given here; further chemistry not fully specified) antisense: AUAAGGAAUCUGUAGAAGTUCGAUUCUUCUUGGGCUUACCA sense: UGGUAAGCCCAAGAAGAAUCGAACUUCUACAGAUUCCUUAU |  |  |  | have a dose-dependent effect on inhibiting the growth and proliferation | have a dose-dependent effect on inhibiting the growth and proliferation | have a dose-dependent effect on inhibiting the growth and proliferation | 39.6 | 144 | 51.9 |  |  |  |
| GL2 mimic: double-stranded RNA from Ganoderma lucidum tRNA-Ile(GAU); antisense SEQ ID NO: 3, sense SEQ ID NO: 12, length 41 (nucleic acid, RNA, backbone not given here) antisense: AUAAGGAAUCUGUAGAAGUUCGAUUCUUCUUGGGCUUACCA sense: UGGUAAGCCCAAGAAGAAUCGAACUUCUACAGAUUCCUUAU |  |  |  | have a dose-dependent effect on inhibiting the growth and proliferation | have a dose-dependent effect on inhibiting the growth and proliferation | have a dose-dependent effect on inhibiting the growth and proliferation | 36.3 | 240 | 57.2 | effective in inhibiting growth and proliferation | effective in inhibiting growth and proliferation | effective in inhibiting growth and proliferation |
